# Assay results published in patent US20260209368A1 (PROMETHEUS BIOSCIENCES, published 2026).
# Numbering of substitutions follows the chain as printed.
# B1: anti-TL1A antibody A219 (antibody, V domains shown)
# VH: QVQLVQSGAEVKKPGASVKVSCKASGFDIQDTYMHWVKQRPGQGLEWMGRIDPASGHTKYDPKFQVRVTITRDTSTSTVYLELSSLRSEDTAVYYCARSGGLPDVWGQGTTVTVSS
# VL: EIVLTQSPGTLSLSPGERATLSCRASSSVSYMYWYQQKPGQAPRPLIYATSNLASGIPDRFSGSGSGTDFTLTISRLEPEDFAVYYCQQWEGNPRTFGGGTKLEIK
# notes: Humanized monoclonal IgG1 with a kappa light chain, designed to abolish effector functions
# B2: A147 (antibody, V domains shown)
# VH: B1 VH with D52E, T58I, V66G, I70M, L81M, V105W
# VL: B1 VL
# B3: A217 (antibody, V domains shown)
# VH: B1 VH with L81M
# VL: B1 VL
# B4: A219 (antibody, V domains shown)
# VH: B1 VH
# VL: B1 VL
# B5: A212 (antibody, V domains shown)
# VH: B1 VH with K38R, M48I, V68A, R72T, V79A
# VL: B1 VL
# B6: A220 (antibody, V domains shown)
# VH: B1 VH with I70M, V79A
# VL: B1 VL with L46W
# B7: A213 (antibody, V domains shown)
# VH: B1 VH with K38R, R72T, L81M
# VL: B1 VL
# Tests used:
# [1] = biological target: T1, recombinant cynomolgus monkey TL1A protein (cynomolgus monkey, UniProt G7PRK8 72-251); test: cell-based or functional assay
# T1 sequence: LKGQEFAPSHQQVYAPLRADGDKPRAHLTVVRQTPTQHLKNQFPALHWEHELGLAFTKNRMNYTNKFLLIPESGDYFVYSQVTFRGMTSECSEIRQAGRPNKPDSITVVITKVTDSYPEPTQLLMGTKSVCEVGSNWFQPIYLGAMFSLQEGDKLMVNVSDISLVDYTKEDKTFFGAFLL
# [2] = biological target: T2, recombinant human TL1A protein (human, UniProt O95150 72-251); test: cell-based or functional assay
# T2 sequence (looked up): T1 sequence with L39F, V78I
# [3] = biological target: T1, recombinant cynomolgus monkey TL1A …; test: ELISA on recombinant TL1A protein, antibody titrated, A450 nm read
# Description: ELISA for each protein was performed at least three times. The data from a representative experiment are shown and are mean±SD. Abbreviations: A=absorbance, Ab=antibody, Cyno=cynomolgus, nm-nanometer, nM-nanomolar. […] Samples were assayed in triplicate, on two separate occasions. Data presented are the mean TL1A concentrations of three animals per group+SD. Samples collected from animals administered isotype control antibody are shown in circles, samples collected from animals administered anti-TL1A are shown in the triangles and square.
# [4] = biological target: T3, TL1A in human blood (human, UniProt O95150 72-251, limits assumed); test: cell-based or functional assay
# T3 sequence (looked up): T1 sequence with L39F, V78I
Binder,IC50 of inhibition of TL1A-induced caspase activation in TF-1 cells [1] [nM],"IC50 of inhibition of the IFN-γ response in monkey whole blood stimulated with immune complex, IL-12 and IL-18 [1] [nM]",IC50 of inhibition of TL1A-induced caspase activation in TF-1 cells [2] [nM],EC50 (read off the curve) [3] [nM],% Inhibition at 1 nM Ig; inhibition of interferon gamma release in human blood [4] [%],% Inhibition at 10 nM Ig; inhibition of interferon gamma release in human blood [4] [%]
B1,0.59,1.54,0.27,~0.4,,
B2,,,,,51.3,72.4
B3,,,,,46,72.2
B4,,,,,59.8,75.2
B5,,,,,46.8,71.2
B6,,,,,36.9,63.2
B7,,,,,48.6,69.8
